System: rabbit eyes
Test: Distribution of Avastin in sectioned rabbit eyes by fluorescence and DIC microscopy, after intravitreal injection or sonophoresis from a hydrogel
Type: in vivo
Description: As described above, the delivery system or device can be used to deliver molecules and/or nanoparticles to the eye of a patient. Once delivered to the surface of the eye, the molecules and/or nanoparticles can penetrate the outer surface of the eye and diffuse to the posterior parts of the eye. For example, FIGS. 14 to 19 are optical microscope images of sectioned rabbit eyes imaged by Differential Interference Contrast (DIC) phase contrast imaging and fluorescence imaging, illustrating the distribution of the monoclonal antibody Avastin to various parts of the eye. Each of these six Figures includes two panels, comprising a left-hand panel showing a fluorescence image, and a right-hand panel showing a white light DIC phase contrast image. FIGS. 14 to 16 illustrate the distribution of Avastin delivered by intravitreal injection, whereas FIGS. 17 to 19 show the distribution of Avastin delivered from a hydrogel by sonophoresis of five minute duration. The red colour in the fluorescence images indicates a secondary antibody bound to Avastin. Consequently, the red colour indicates the location of Avastin in the tissues of the eye.
The vitreous humor is not visible in the “white-light” DIC images because the sections are mounted on the slides using a 90% glycerol solution in order to stabilise the cover slip and the section during the confocal microscopy. The glycerol has a similar refractive index to the vitreous humor.

## Avastin: the monoclonal antibody Avastin
Rabbit eye (LE), Sonoactuator: hydrogel, sonophoresis of five minute duration
  presence of Avastin in vitreous humor (staining): not visibly stained
Rabbit eye (RE), intravitreal injection
  presence of Avastin in vitreous (red staining): abundant presence
Rabbit eye, delivery from the gel with ultrasound
  staining of ciliary body for Avastin: does not stain well
Rabbit eye, intravitreal injection
  staining of ciliary body and iris for Avastin: heavily stained
Rabbit eye, non-invasive delivery from hydrogel under ultrasonic stimulation (FIGS. 17 to 19)
  delivery of Avastin to choroid and retina: non-invasively delivered to the choroid and retina

From patent publication US20200139098A1, “DELIVERY SYSTEM AND PROCESS” (POLYPHARMA PTY LTD, priority 2006, published 2020)
